Measured values taken from US20150315248.

Molecular target: gelatin substrate

B1: Dif153 (CD2830, hypothetical protein, zinc metallopeptidase), recombinant (protein)
chain: DSTTIQQNKDTLSQIVVFPTGNYDKNEANAMVNRLANIDGKYLNALKQNNLKIKLLSGKLTDEKEYAYLKGVVPKGWEGTGKTWDDVPGLGGSTVALRIGFSNKGKGHDAINLELHETAHAIDHIVLNDISKSAQFKQIFAKEGRSLGNVNYLGVYPEEFFAESFAYYYLNQDTNSKLKSACPQTYSFLQNLAK
fluorimetric analysis of gelatin cleavage: the recombinant protein has a weak gelatinase/collagenase activity in the presence of zinc, but not in the presence of nickel and copper or in the apo form
